According to paper PMC8044208 (2021):

B1: Mb(MLKL_32) (protein)
chain: VSSVPTKLEVVAATPTSLLISWDAPAVTVDLYIITYGETGGNSPVQTFEVPGSKSTATISGLSPGVDYTITVYAYSFMYHDYYYPEWSPISINYRT
B2: human MLKL pseudokinase domain, as used for the KD measurements (domain or fragment)
chain: QEQIKEIKKEQLSGSPWILLRENEVSTLYKGEYHRAPVAIKVFKKLQAGSIAIVRQTFNKEIKTMKKFESPNILRIFGICIDETVTPPQFSIVMEYCELGTLRELLDREKDLTLGKRMVLVLGAARGLYRLHHSEAPELHGKIRSSNFLVTQGYQVKLAGFELRKTQTSMSLGTTREKTDRVKSTAYLSPQELEDVFYQYDVKSEIYSFGIVLWEIATGDIPFQGCNSEKIRKLVAVKRQQEPLGEDCPSELREIIDECRAHDPSVRPSVDEILKKLSTFSK

Legend:
[1] = target: B2; assay: previously reported
Mb(MLKL_26) = assay: FACS; yeast display

B1 was tested, and the Kd [1] was 37.1 nM.

In the case of B2, the Kd (Mb(MLKL_26)) is reported as 176 nM.
